From article PMC6142219

Molecular target: CBS–CP12 protein (IPF_2164) of Microcystis aeruginosa PCC 7806 (Microcystis aeruginosa PCC 7806)
Assay: SEC

CBS–CP12 protein (IPF_2164) of Microcystis aeruginosa PCC 7806 (natural protein)
stoichiometry N: 6
